In a protein production outcome set (Wang et al. 2014):

Test: label from the status in PepcDB records

Row | Sequence | protein production
1 | MARTFRSLRNFNYRVWASGAIVSNIGTWMQRTAQDWLVLTELTHHNATAVGIVMSLQFGPQMLLLPLTGYAADHFNRRKLLFITQTAMGLLALGLGLMTVTGLVRLWHVYVFALLLGCVTAFDAPARQTFVSDLVGEEDLPNAVALNSTSFNGARMIGPAITGLLIASIGTGWVFLINALSFVPVIGALRMLRQHELHLKPPAQRSRGSFLEGFRYVWKRPDLKAALFMLFLIGTFGLNFPIFISTMSVSAFHAGAGQYGLLSSTMAIGSVTGTLLAARRARPRMAILVGAATIFGVGCMFGALMPNAVLFGLTLAVIGASTQTFTTSTNSLVQISTEPAMRGRVIAILLAIALGTTPLGAPVVGWVADRFGPRWALGVGAASGFAAALVGLFYLMRNRNLRFYIETGRLRYSIDKPRQTAFMAAPAASVPNVVMSKAEDE | failed
2 | MARYRGAVERLERRFGVSLALKGERRLSGKSALDKRAYGPGQHGQRRAKTSDYGLQLKEKQKAKMMYGISEKQFRSIFVEANRLDGNTGENLIRLIERRLDNVVYRMGFATTRSSARQLVTHGHVLVDGKRLDIPSYFVRSGQKIEIKEKTKSNSQVVRAMELTAQTGIVPWIDVEKDKKYGIFTRYPEREEVVVPIEERLIVELYSK | failed
3 | MASADKLINTDVPEKDVFAFHFLQSLSNLRKQNPFDTPDQKNYRVRKIKKAAYVSMARAAGGSSRLWSRALLRRADKDDNKIVRFSRRKWKISSKRRRSNQRAPVVEEAAERLRNLVPGGGGMETSKLMEETAHYIKCLSMQVKVMQCLVDGLSPK | failed
4 | MASDPITTQEFSPRQNAVLDQALRLLVEGGEKALTTSGLARAANCSKESLYKWFGDRDGLLAAMITFQQSKVRTFEKAGDRVSAPQLADHLEVFAHDLLDVLAGDVSLALNRLAIGQASRDGSKLGDLLLERGRRQIDRRARGLIEAGRRSGYLRFDDAEEAYRSFYGLIVSDLHVRMLLGEAPDKDFSARAKKAVVAFLTLYGTEKVHSELGGKVA | not failed
5 | MASDTPGFYMDKLNKYRQMHGVAITYKELSTSGPPHDRRFTFQVLIDEKEFPEAKGRSKQEARNAAAKLAVDILDNENKVDCHT | not failed
6 | MASEFDLIQRYFRRAHPSAVLGVGDDAALIQPSPGMELAVSADMLVANTHFYPNIDPWLIGWKSLAVNISDMAAMGAQPRWATLTIALPEADEDWISKFAAGFFACAAQFDIALIGGDTTRGPLTISVQIMGETPPGASLLRSTARADDDIWVSGPLGDAALALAAIQGRYPLSDTELAACGKALHQPQPRVVLGQALRGLAHSALDISDGLLADLGHILEHSQVGAEVWLKAIPKSEVVSAHSQEVAIQKMILSGGDDYELCFTASTQHRQQIADIGRQLSLDMAVIGRITDTQQLVIHGLDDAPLTLKEHGFDHFA | not failed
7 | MASESSIDEKKKKAQVTQSNINKNTPQQLTDKDLFGNETTLAVSEEDIQAALDGDEFRVPLNSPVILVQSGNRAPETIMQEEMRKYYTVSTFSGIPDRQKPLTCNKNKDKNENEDVASAENMNWMQALRFVAAKGHQKAIIVYQDMLQTGKYDSALKSTVWSDYKNDKLTDAISLRYLVRFTLVDVATGEWATWSPVNYEYKVLPPLPDKNEASTTDMTEQQIMQLKQKTYKAMVKDLVNRYQLEHHHHHH | failed
8 | MASGSTQVKYLGIYQKMKQQILDGEYKINEKIPSSPILAEEFGVSVLTIKKALDLLVRDGYIIRRRGSGTVVQDWRQQEKARMIQTLTGTKAVYGSEVESKIIEFTIVGADEIIAEKLGISVGDFVYKIIRLRIIHSIPTIMEHTWMPIAVIPGVEASVLEESIYSYIQNKLGLKVGTSVVRVKGIRPDDKEKQFMNLTNQDFLMRVEQVAYLTDGRTFEYSYADHLPETFEFETVITAKSYKEA | failed
9 | MASHELDYRILGESMQTVEIELDPGETVIAEAGAMNYMTGDIRFTARMGDGSDGSLLGKLWSAGKRKLGGESVFMTHFTNEGQGKQHVAFAAPYPGSVVAVDLDDVGGRLFCQKDSFLCAAYGTRVGIAFTKRLGAGFFGGEGFILQKLEGDGLVFVHAGGTLIRRQLNGETLRVDTGCLVAFTDGIDYDVQLAGGLKSMLFGGEGLLLTTLKGSGTVWLQSLPFSRLAGRIYDATFRAREEVRTNNG | not failed
10 | MASHISLKQLKVFTTITQHKTLTAASDSLFLSKAAVSMALSELEKQIGHHLFDRVNNRLILNQEGQKLLPLADELLNRAKDIESIFDGDQALSGQLRIGASDTIGNQVAPYLLSEFRQQTNHRSQSLFISNSAQICDMLTDYELDIALIEGKTLHPELQSTQFSEDEMCVICAPDYPAAHEGPVNLTELENSEWILREAGSGSREFFMRVVAPRLEHWHEAFQLNTTEALINSVSAGLGLGCLSRLSAEPAIRDGRVKLLDMPLDMKRRFWLLVHKEKYQSPLLKTFIEFCQDWERPTNLPLGNKSAK | failed
11 | MASHIVGYPRMGPKRELKFALESFWDGKSSADDLQKVSADLRSDIWKQMSAAGIKYIPSNTFSHYDQVLDTTAMLGAVPSRYGFTSGEIGLDVYFSMARGNASVPAMEMTKWFDTNYHYIVPELGPEVKFSYASHKAVNEYKEAKALGVETVPVLVGPVSYLLLSKLAKGVDKSFDLLSLLPKILPVYKEVIAELKAAGASWIQLDEPLFVMDLEGHKLQAFSGAYAELESTLSGLNVLVETYFADIPAEAYKTLTSLKGVTAFGFDLVRGTKTIDLIKSGFPQGKYLFAGVVDGRNIWANDLAASLITLQSLEGVVGKDKLVVSTSCSLLHTAVDLINETKLDAEIKSWLAFAAQKVVEVDALAKALAGQTNESFFTANADALSSRRSSPRVTNESVQKAAAALKGSDHRRTTEVSARLDAQQKKLNLPILPTTTIGSFPQTVELRRVRREYKAKKISEEDYVKAIKEEIKKVVDIQEDLDIDVLVHGEPERNDMVEYFGEQLSGFAFTANGWVQSYGSRCVKPPVIYGDVSRPKPMTVFWSSTAQSMTKRPMKGMLTGPVTILNWSFVRNDQPRHETCYQIALAIKDEVEDLEKGGIGVIQIDEAALREGLPLRKAEHSFYLDWAVHSFRITNCGVQDSTQIHTHMCYSNFNDIIHSIIDMDADVITIENSRSDEKLLSVFREGVKYGAGIGPGVYDIHSPRIPSTDEIADRINKMLAVLEQNILWVNPDCGLKTRKYTEVKPALKAMVDAAKLIRSQLGSAK | failed
12 | MASHLFTRSRISLLKTLKPNPFTSASPIRAISGTPFLSQDPLLATESTDHDPSNHQSTSTPLPPNPATGSPLYQENWRSPIPNTPSFNQSLVPLGFLNQAPAPRIRALSETLDMNSLLNMFADWTASQRWSDMKQLFEVWVRSLDKNGKPNKPDVNLYNHYLRANLMMGASAGDMLDLVAPMEEFSVEPNTASYNLVLKAMYQARETEAAMKLLERMLLLGKDSLPDDESYDLVIGMHFGVGKNDEAMKVMDTALKSGYMLSTSVFTECVRSCVAKGRTDTLVSIIERCKAVDRNKSLCPSWILCNYIAEVAIQEDNSKLAFYAFEFMFKWITRGEMARPSVIFSVDEGLVVAGLASAARTCSSSLVEGSWTILKQSLRGRKAANPASYIAKINAYASLGNLQKAFTSLHELESAYADSEKEVVEEMLSPFTSLYPLVVACSKKGFETLDEVYFQLESLSQGDTPYKSVAALNCIILGCANTWDLDRAYQTFEAISASFGLTPNIDSYNALLYAFGKVKKTFEATNVFEHLVSIGVKPDSRTYSLLVDAHLINRDPKSALTVVDDMIKAGFEPSRETLKKLRRRCVREMDDENDDQVEALAKKFQIRMGSENRRNMLFNIDYSRGRALNN | failed
13 | MASISNLIILLISFLIGWIILSIPVWLASKAVSRRSSFGNAMIVSLVSIVVYVVLSTFLHFIGAIIGIIIILLIIREIYNVGWGGAIVIGVLSLVIFVIIALILGALHLASLLI | failed
14 | MASLISFWLFFALSLLQPQQRQFLASKPWQDWLLDGVSLGIQGAIIPLLQLLLVINFYSLIIPHWQHSFNLFAGGQFLLGFVAIDYVYYWSHRALHSKLLFPIHQVHHTVSQMDMVSCARNTFWSSLFLPYVWLNSLIIYLLHDARGYILAISCTYLLDLWRHSSLIINKKCWLHDCLNSWLILPQDHGLHHHQIGKGNFGANLKLWDKIHGTYLKNTLPNQLSISSGMGIKLELTLWQKLFWPLT | failed
15 | MASLLPSTGRGENIAGKLLLLIVALLMCIGVVVVYSSGAGWAEQKFSDPQYFLWRQLTFAIAGMAVIFVVGAIDYHIFRKISKLFLFVSIGLLAILLLLKLAHVIHGAARWLGFGPLKFQASDLAKYAIIFHFSRLLSEKRAYIKDLHDGYYPMLVLLMIVVALVALEPNFSTASIIAIIGFTLMFIGGIRIKYLLATASLLIPIAAVFAIAAPYRVARLVSFGGGEKELSYQVRQALLGLGNGGLFGLGLGASKQRELYLPLSYNDFVFVIIGEEYGFIGALVILLLFSGLFACGIIIAKHAPDLFGRYVAIGVTFAIVFFAFINIAVACHLMPTTGVALPFISYGGTALLFNSLGIGLLVSISRYRKKVETIERAQALLESKGGSL | failed
16 | MASLWFGLIASSALVIGAFVGVRFELPKRLLAILLSFAAGSLITALAFELFEDAYEQGGIVRAALGLLAGAIVFTALSALLDRWAQPGGKSTTKAADEIQGSPKLDTDAAASDKAATSASTRGAAGMALLAAVTLDGVPENLALGISLGEGSGGLALLAAIFVSNLPEALVGASSMKSQGRKAGPIMLLWSVCAVLLVAAVVLGAGPLSSAEPATISLPLAFAAGAVIASLADTLMPEAYEHGGPAVALSTAAGFVLSFTLSLA | failed
17 | MASMTGGQQMGRGSEEPNPNDGYDYMQHGFDWPGLQEGGTTKYPACSGSNQSPIDINTNQLMEPSSRSGTSAVSLNGLNVDGAQADGITLTNAKVDLEQGMKVTFDQPAANLPTIEIGGTTKSFVPIQFHFHHFLSEHTINGIHYPLELHIVMQEQDPADVATAQLAVIGIMYKYSENGDAFLNSLQTQIEGKIGDGTASYGDTGVSIDNINVKTQLLPSSLKYAGYDGSLTTPGCDERVKWHVFTTPREVTREQMKLFVDVTMGAHAGADVVNNRMIQDLGDREVYKYNY | not failed
18 | MASQQEKKQLDERAKKGETVVPGGTGGKSFEAQQHLAEGRSRGGQTRKEQLGTEGYQQMGRKGGLSTGDKPGGEHAEEEGVEIDESKFRTKT | failed
19 | MASRDAQEPSLHAADPSIVRPCEQHGGVLAGSVSSHPAAAECASHTPTLETGAPCAAGSAPSAPMTDQGARSPRAADSMPASSLERDERARRIACRLPSSAIRLPAFGEAVSRPNAGSSVDATATKASLPSAGDDGLGNSREEQGTTCSEPDLHGVPENDQVEVCVGGRGILRPRSYQRQAPQRCGLPGMAPETAARPDHTARNELEEALARQRARLAEPDASGDIHGRHAG | failed
20 | MASRFQEASLVTSPSYPNAVAWSSENLIAVAAGHLVIIINPALPTGPRGLITISDAELYQIGRVRSQDLLTGGLLPSSLKRERSPCVRSLSWSEIGMSPNHGCLLAVCTAEGRVKLYRPPYSDFCAEWIEIVDISKMLYENLSSMNFGESKNPSTSLSKDQVVEHDHEEDERISSLKARKRRKTSANNINLHEKNYTDRASCSKQDSKAEHNVLEIEVYKQASNGQDRRSLPKALKKCSQEISPQTYVSREALLSSHSVAWSSLLRFSSESSCGNMLRFSLLAIGSKSGSVSIWKVHAPECYHIERSNVSPMVELTAIVQTHSSWVSTMSWGIFGCDSSNPQVVLVTGSCDGSVKIWMSNKEDLQNSVEVYKSSFFLLKEVVAVNPVQVSTLSFVVSNHYNAMHLAIGKGSGSFEVWKCEISTRKFEQIVSTNAHNQVVTGLAWSYDGRCLYSCSQDNYVRSWILCENAISEVPIPANTPGLSSTTDLPDDFLSCLGVALSPGNLAVALVRNFNVELLNPMYQARSQKAAVEFLWNGAQQSGESEDSTETVTEAILGFSKNEFANWESNILWSLKEFNYLNKPLVLWDMVAAMLAFKQSMPEFVELVLTKWLSVSYLGFHDDISMEDLVPKITKRFSDVPSRLLHILNVISRRVMLSELKTEEINRKLQGQRTNDEGEIDLWLKLLQESERELRERLVGLSFSAYLLAESSQGTISPPSWNWRPAGLALLQQWVEINRDIVHSQLETLSLEVKSSRTRSSNSTETALEEEKCPYCAAPVNFHSAEEAFCESSHQKKKKSKDKERCDESHKLERCCVSMQVCPPTPLWFCKCCNRMTLELAPETLFALPSFPSDLKSLPKSSFSKVASKPFCLFCGVLLQRKQPEFLLSASPV | failed
